These results are taken from the DeepSol protein solubility set.

The nature of the series: soluble on expression in E. coli; label from the status in PepcDB or PDB records.
With “MFVMEKVLFPFSAVVDEDDLKMALILNAIDQRIGGVLIMGPKGVAKSTIARSLTDLLPDIDVVKDCPFKCDPHDPSSMCDECIKKYRDGTIVSEKRKIPFVNMPVTATLDRVVGSLDIKRAIDEGLRALQPGLLAEANRGIIYIDEVNLLDDSVVDSILDSAASGINVVEREGVSVTHPARFILIGTMNPEEGDLRPQLKDRFGLSVTAVQPSDPEELIEISNRVEEFDRDPEAFRRKYEKIQNEIRNRIMRARSLLPSVVIDEDLKRFIAEVVIKLQAGNRAMITAVKASKAIAAFNGRDRVNIDDVKEALNLVLKHRVKDSAMIRGTIEKESRDLSTRSVEAGPHSGYEEGSESSGRRDMKAGNGKDEEKDVEVSAAFDEESNRSGRTGNADIFRILDQNRPGDHFDYRASLVNMIMNGRRRMKYEDLAFVSSRSRASIPVILAVDASRSMETMHRIALARGIARSFLHSAYRMRVKLSYITFYGTESHLMVEPTRNLDLIDREISRTVPQGKTPIPAALKMMYDISSRYRQRTVSIMITDGRANVPLGNDVTHDVREWSAKLGTRSDLFLISSTMGSERFMPSYNEDICRYSGGQLIEMDGNGHIALYSGYRRY”, the “soluble on expression in E. coli” value is on record as “soluble”.

Turning to “SPKRETKKIKPSQEVIKEGPFLVAIHLKGIYMSNYTNSPCAACKFLRRKCTSDCVFAPYFPPEEPTKFANVHRIFGASNVSKILHEVAPHQREDAVNSLAYEAEARLKDPVYGCVGAISVLQRQVLRLQRELEETNADLMRYAGCLGGETTSAYGGRRG”, the “soluble on expression in E. coli” value is “soluble”.

“MAEILRAENIKKVIRGYEILKGISLSVKKGEFVSIIGASGSGKSTLLYILGLLDAPTEGKVFLEGKEVDYTNEKELSLLRNRKLGFVFQFHYLIPELTALENVIVPMLKMGKPKKEAKERGEYLLSELGLGDKLSRKPYELSGGEQQRVAIARALANEPILLFADEPTGNLDSANTKRVMDIFLKINEGGTSIVMVTHERELAELTHRTLEMKDGKVVGEITRV”: the “soluble on expression in E. coli” value is “soluble”.

As to “MGSDKIHHHHHHMYKYKFTVFTPTYNRAHLLENLYNDLKAQTYDFNDFEWLIVDDGSSDSTKELVEKFISENKLNIRYIYKENGGKHTAINLGVKNADGELFFIVDSDDGLIKDSLEIANDEWDSLENKEGFSGVVGLCVYPSGDLIGTEMPEDKKICHFADLYFKYGVKGDKSIVFVTDELIKFPFPERKEVRFLPESVVWNEMSKYYKVICVNKPMIIRDYLDDGLTKNILSKNALRGRALEFLYLINQNTYPLSRYPYMWIKNYINLARYSLLSDSHYFGELRKVSDKLLYLALFPLGYYKYIGQRKLVSK”, the “soluble on expression in E. coli” value is “not soluble”.

Regarding “MGHHHHHHSHMGLSYQEELTLPFELCDVKSDIKLPLLLDYCLMVSGRQSAQLGRSNNNLLVDYKLVWIVTDYEITIHRLPHFQETIIIETKALSYNKFFCYRQFYIYDQEGGLLVDILAYFALLNPDTRKVATIPEDLVAPFETDFVKKLHRVPKMPLLEQSIDRDYYVRYFDIDMNGHVNNSKYLDWMYDVLGCEFLKTHQLLKMTLKYVKEVSPGGQITSSYHLDQLTSYHQIISDGQLNAQAMIEWRAIKPIESETD”, the “soluble on expression in E. coli” value is listed as “not soluble”.

With “MEYSQIPSFAFYNNASIFQFFPRNKRLNTHQKSCLDEHARKMAVFMMERQEEYRYYENLANQEQFSDDACFSDTGMDSGFCSGATSTGQSASTSPAPAHLIPNPFFDPEYVAKAQSPVKLVANPFYNPELVKEIKKKSRVSV”, the “soluble on expression in E. coli” value is on record as “not soluble”.

For the sequence “MKMYEVKEFSSGKRKLEDYKSIIGEEEVSKIQEKAEKLKGRSFVHVNSTSFGGGVAEILHSLVPLLRSIGIEARWFVIEGPTEFFNVTKTFHNALQGNESLKLTEEMKELYLNVNRENSKFIDLSSFDYVLVHDPQPAALIEFYEKKSPWLWRCHIDLSSPNREFWEFLRRFVEKYDRYIFHLPEYVQPELDRNKAVIMPPSIDPLSEKNVELKQTEILRILERFDVDPEKPIITQVSRFDPWKGIFDVIEIYRKVKEKIPGVQLLLVGVMAHDDPEGWIYFEKTLRKIGEDYDVKVLTNLIGVHAREVNAFQRASDVILQMSIREGFGLTVTEAMWKGKPVIGRAVGGIKFQIVDGETGFLVRDANEAVEKVLYLLKHPEVSKEMGAKAKERVRKNFIITKHMERYLDILNSLGGLEHHHHHH”, the “soluble on expression in E. coli” value was “soluble”.

Regarding “MAHHHHHHMIRRKLYCSFLFLAILETFKVNQRWSIFISAWYAHEDVDSDYSHSKLYEVLGVHKYATTEEIKKAYRKLSKKYHPDKAKDKNSNNRFNEIAEAYEILGDEEKRKVYDHHGLEAAKNVESNKMDEDPTDHFNIYESFFGGAGGFRREEMKKADSLTLNVEMSLEQLYNGDFFSVIYTRDVNCLRSDDCIMKKKECSGKGYKTVTQQVAPGFIMQNKMRDENCIDRGKAWNPKCSYCPNGMKEEKTIELTLEVEKGMKNNDKIVFEKKGKQEIGYESGDVIFVIQTKKHKVYERKNNDLHQFYEISLKDALIGFSKDIDHISGAPIRINKQTVTFHNEILKVQNKGMPIRDSSKYGDLYIKFLVQFPKYLTEEQKRAISQFL”, the “soluble on expression in E. coli” value is recorded as “not soluble”.

As to “MKKIVLYGGQFNPIHTAHMIVASEVFHELQPDEFYFLPSFMSPLKKHHDFIDVQHRLTMIQMIIDELGFGDICDDEIKRGGQSYTYDTIKAFKEQHKDSELYFVIGTDQYNQLEKWYQIEYLKEMVTFVVVNRDKNSQNVENAMIAIQIPRVDISSTMIRQRVSEGKSIQVLVPKSVENYIKGEGLYEH”, the “soluble on expression in E. coli” value is “soluble”.

Consider “DIQMTQSPSSLSASLGERVSLTCRASQDIGSKLYWLQQEPDGTFKRLIYATSSLDSGVPKRFSGSRSGSDYSLTISSLESEDFVDYYCLQYASSPYTFGGGTKLAIKRADAAPTVSIFPPSSEQLTSGGASVVCFLNNFYPKDINVKWKIDGSERQNGVLNSWTDQDSKDSTYSMSSTLTLTKDEYERHNSYTCEATHKTSTSPIVKSFNRNEC”, for which the “soluble on expression in E. coli” value was “soluble”.

Turning to “MRILLSNDDGVHAPGIQTLAKALREFADVQVVAPDRNRSGASNSLTLESSLRTFTFDNGDIAVQMGTPTDCVYLGVNALMRPRPDIVVSGINAGPNLGDDVIYSGTVAAAMEGRHLGFPALAVSLNGYQHYDTAAAVTCALLRGLSREPLRTGRILNVNVPDLPLAQVKGIRVTRCGSRHPADKVIPQEDPRGNTLYWIGPPGDKYDAGPDTDFAAVDEGYVSVTPLHVDLTAHSAHDVVSDWLDSVGVGTQW”, the “soluble on expression in E. coli” value was “not soluble”.

As to “RVQLLESGAELMKPGASVQISCKATGYTFSEYWIEWVKERPGHGLEWIGEILPGSGRTNYREKFKGKATFTADTSSNTAYMQLSSLTSEDSAVYYCTRGYSSMDYWGQGTSVTVSAAKTTPPSVYPLAPGCGDTTGSSVTLGCLVKGYFPESVTVTWNSGSLSSSVHTFPALLQSGLYTMSSSVTVPSSTWPSQTVTCSVAHPASSTTVDKKLEPSGPI”, the “soluble on expression in E. coli” value is given as “soluble”.

Regarding “MGSDKIHHHHHHMLKTKTALTLSDKNYYSTEADWHYMSVSQYKNFNECEAATIARLKKIWLPCSDPKALLVGNYVHSYFESSKIHDLFKKENKDKMFSSRKPYGLLKDFQIAEQMIQRLKEEPAFMNLYKGEKEVIVTGQIENVNWKGKIDCLNLEDGYFVDIKTTKDIHERKWNDSYAERCTFIENYGYVLQMAVYKELLSQKYNREFVPIIAAVSKQTPSEVKLITLDEDKMHFEMIQLKENIEHIIKVKNGEEKPTLCGRCEYCRGQQRITHFTNMNDL”, the “soluble on expression in E. coli” value is “not soluble”.

Regarding “MKDLLTRRFVLNSKEVREGDVFVAVKGKRFDGHDFIDEALRNGAYAIIAERKTVNSDRIFLVESSVDTLAKLAREKLGNFSGTVVGVTGSSGKTTTKEILYNLLKNKRSVFKTPGNMNTEYGLPLSILNDYKGEEILVLEMAASRPGDIAHLCKIAPPDVAVLLNVGSAHLEFFGTRERIMETKMEIIKHSKENAIAVTLFDDPDLRKEVPRYRNTLFFGKEGGDSVLKDWWYYEGSTIAEFEAFDSLFTVKLSGYWNGGQLLNIAASLCVMRTLGETVDIFDLASLKTVPGRFNVREKKGVLIVDDTYNASPEAFQTSIEALLRFPGKKFAVVGAMKELGERSKEFHEELGERLNVLDGVYVFLSEPEAEWIKSKKIILKSDDPEKIAKDLATRVKKGDVVLFKASRAVRIERVLEMFEKELEKR”, the “soluble on expression in E. coli” value is “soluble”.

“MDRKIVQLIHNFSGTEKLKAAVFSHDEQCFFDFVSFDELNSKLTGFLLFDSLEKLFKLVETIQQKRSWLYVDELWLINTATENQQLNEVSVWLVKKELAQVGVLTQLDTSLVKLLMASKNTDSALYNTYIKPVELQQFTQTPAPDNVNAEQSHLTLESTTDLNNSQLANTPALWEVEQTTQELLPTMDFSKFIDELDQITKNFSDLELEPLSFNEGFDEWNQE”: the “soluble on expression in E. coli” value was “soluble”.
